# Assay results: patent US20220119492A1 (MEDIKINE, published 2022)
# Primed or numbered codes have the meaning given here. Ends that are not written are not given here. PEG10 = NCCOCCOCCOCCOCCOCCOCCOCCOCCOCCOCCC(=O)O; PEG20′ = not defined here; PEG4′ = not defined here
# T1: human IL-2Rγc (CD132 protein, Fc Tag) (23-254) (human, UniProt P31785 23-254)
# T1 construct: range 23-254; Bought protein; also called hu-IL-2Rγc subunit; IL-2Rγc subunit; not shown: Fc tag of the bought protein
# T1 sequence (looked up): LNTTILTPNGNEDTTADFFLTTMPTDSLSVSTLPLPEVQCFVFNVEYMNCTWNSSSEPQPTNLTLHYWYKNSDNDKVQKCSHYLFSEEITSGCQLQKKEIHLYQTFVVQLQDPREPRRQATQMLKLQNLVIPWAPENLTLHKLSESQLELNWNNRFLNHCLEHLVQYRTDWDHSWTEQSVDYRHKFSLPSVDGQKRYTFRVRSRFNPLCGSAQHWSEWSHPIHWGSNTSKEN
# T2: human IL-2Rβ (CD122 protein, Fc Tag) (27-239) (human, UniProt P14784 27-239)
# T2 construct: range 27-239; Bought protein; also called hu-IL-2Rβ subunit; IL-2Rβ subunit; not shown: Fc tag of the bought protein
# T2 sequence (looked up): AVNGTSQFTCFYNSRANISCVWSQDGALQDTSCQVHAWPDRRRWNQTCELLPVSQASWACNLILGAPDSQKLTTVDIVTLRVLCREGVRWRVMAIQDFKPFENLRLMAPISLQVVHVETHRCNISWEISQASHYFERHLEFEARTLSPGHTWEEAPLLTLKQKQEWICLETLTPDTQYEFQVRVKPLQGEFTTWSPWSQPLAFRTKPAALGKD
# T3: hu-IL-2R (human, UniProt P14784 27-551; P31785 23-369)
# T3 sequence (looked up) 1: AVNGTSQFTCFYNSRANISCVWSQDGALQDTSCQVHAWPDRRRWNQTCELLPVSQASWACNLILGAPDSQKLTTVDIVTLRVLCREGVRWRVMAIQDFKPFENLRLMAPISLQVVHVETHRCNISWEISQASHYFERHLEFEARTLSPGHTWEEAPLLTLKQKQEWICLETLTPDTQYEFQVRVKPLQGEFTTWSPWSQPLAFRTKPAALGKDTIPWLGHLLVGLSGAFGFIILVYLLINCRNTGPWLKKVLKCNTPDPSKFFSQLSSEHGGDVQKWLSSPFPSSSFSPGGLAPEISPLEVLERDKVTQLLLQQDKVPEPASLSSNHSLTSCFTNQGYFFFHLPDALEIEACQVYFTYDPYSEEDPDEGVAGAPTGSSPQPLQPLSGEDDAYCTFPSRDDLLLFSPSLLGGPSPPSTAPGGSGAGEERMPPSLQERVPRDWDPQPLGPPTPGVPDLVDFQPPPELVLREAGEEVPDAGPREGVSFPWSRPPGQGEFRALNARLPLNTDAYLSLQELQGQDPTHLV
# T3 sequence (looked up) 2: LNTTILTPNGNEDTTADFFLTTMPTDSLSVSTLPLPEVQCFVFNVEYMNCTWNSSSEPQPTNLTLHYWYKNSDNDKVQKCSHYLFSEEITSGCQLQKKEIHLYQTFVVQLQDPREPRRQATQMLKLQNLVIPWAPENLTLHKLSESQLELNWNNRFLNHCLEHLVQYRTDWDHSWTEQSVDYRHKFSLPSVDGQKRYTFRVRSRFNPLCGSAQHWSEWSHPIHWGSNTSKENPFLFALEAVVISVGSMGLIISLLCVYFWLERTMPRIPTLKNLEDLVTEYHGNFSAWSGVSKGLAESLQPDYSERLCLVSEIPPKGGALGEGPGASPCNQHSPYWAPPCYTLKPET
# Key:
# [1] = biological target: T1, human IL-2Rγc (CD132 protein, Fc Tag) …; experiment: competitive binding ELISA (Example 28)
# Experimental: (§1) In this example, IL-2R ligands were diluted to 2-times final assay concentration in PBT (1×PBS pH 7.2, 0.5% Bovine Serum Albumin, 0.05% Tween®20) and serially diluted. Fifty (50) μL was added to the appropriate wells. The plates were then incubated at 4° C. for 1 hr.
# (§2) Without washing, fifty (50) μL of representative phage were added to the assay wells (phage tracer). The plates were then incubated at 4° C. for 45 min.
# [2] = biological target: T2, human IL-2Rβ (CD122 protein, Fc Tag) …; experiment: competitive binding ELISA (Example 28)
# Experimental: as §1, §2
# [3] = biological target: T2, human IL-2Rβ (CD122 protein, Fc Tag) …; experiment: IL-2Rβ IC50, assay not named in Example 29
# hu-IL-2R = biological target: T3, hu-IL-2R; experiment: cell-based or functional assay
# [4] = biological target: T1, human IL-2Rγc (CD132 protein, Fc Tag) …; experiment: IL-2Rγc IC50, assay not named in Example 29
Binder,IC50 [1],IC50 [2],IC50 [3],"EC50 (STAT5, NK92) (hu-IL-2R)",IC50 [4]
KVCEMWGGVLLCWN (Used as phage clone; also called family 1A) [IL-2Rγc ligand SEQ ID NO: 198],< 10000 nM,–,–,–,–
YDCRIAQVGELCDL (Used as synthetic peptide and as phage clone; also called family 1) [IL-2Rβ ligand SEQ ID NO: 58],–,< 10000 nM,–,–,–
DCSMWEGVELCW (Used as synthetic peptide and as phage clone; also called family 1B) [IL-2Rγc ligand SEQ ID NO: 224],< 10000 nM,–,–,–,–
RWGDVGDLLMPL (also called family 2C) [IL-2Rβ ligand SEQ ID NO: 1042],–,< 10000 nM,–,–,–
PEG-IL-2Rβγc ligand construct PEG-3 (cysteine pairing not given here) peptide: {PEG 40 kDa branched}-APAPAPAPAPAPGGWYPCWMAQLGELCDLDGGGGSGGVVCQDWEGVELCWQGG,–,–,14 nM,2.3 nM,4.3 nM
GGWYPCWMAQLGELCDLDGGGGSGGVVCQDWEGVELCWQGG-{PEG4′-PEG 40 kDa branched} (cysteine pairing not given here) [PEG-IL-2Rβγc ligand construct PEG-2],–,–,8 nM,273 nM,690 nM
{PEG 40 kDa linear-PEG20′}-GGWYPCWMAQLGELCDLDGGGGSGGVVCQDWEGVELCWQGG (cysteine pairing not given here; reading uncertain) [PEG-IL-2Rβγc ligand construct PEG-6],–,–,17 nM,1.6 nM,3.4 nM
{PEG 40 kDa branched-PEG20′}-GGWYPCWMAQLGELCDLDGGGGSGGVVCQDWEGVELCWQGG (cysteine pairing not given here; reading uncertain) [PEG-IL-2Rβγc ligand construct PEG-7],–,–,3.4 nM,8.3 nM,1.7 nM
GGWYPCWMAQLGELCDLDGGGGSGGVVCQDWEGVELCWQGG-{PEG10-PEG 40 kDa branched} (cysteine pairing not given here) [PEG-IL-2Rβγc ligand construct PEG-4],–,–,8.5 nM,24 nM,3.7 nM
QICDVGQWWPDCQV (Used as phage clone; also called family 2A) [IL-2Rβ ligand SEQ ID NO: 170],–,< 10000 nM,–,–,–
{PEG 20 kDa linear-PEG20′}-GGWYPCWMAQLGELCDLDGGGGSGGVVCQDWEGVELCWQGG (cysteine pairing not given here; reading uncertain) [PEG-IL-2Rβγc ligand construct PEG-5],–,–,33 nM,1 nM,4.1 nM
CPSMLQGPERTWVC (Used as phage clone; also called family 4) [IL-2Rγc ligand SEQ ID NO: 266],< 10000 nM,–,–,–,–
NMCLVGDYWPSCQI (also called family 2A) [IL-2Rβ ligand SEQ ID NO: 169],–,< 10000 nM,–,–,–
RTCTEWENVVLCWV (also called family 1A) [IL-2Rγc ligand SEQ ID NO: 202],< 10000 nM,–,–,–,–
CGMAIGDLCMWT (Used as phage clone; also called family 2C) [IL-2Rβ ligand SEQ ID NO: 1034],–,< 10000 nM,–,–,–
{PEG 40 kDa branched-PEG10}-GGWYPCWMAQLGELCDLDGGGGSGGVVCQDWEGVELCWQGG (not fully specified; printed as -GGWYPCWMAQLGELCDLDGGGGSGGVVCQDWEGVELCWQGG-; cysteine pairing not given here) [PEG-IL-2Rβγc ligand construct PEG-1],–,–,31 nM,5.8 nM,26 nM
MCWLEWGEWVGSCL (Used as synthetic peptide and as phage clone; also called family 2) [IL-2Rγc ligand SEQ ID NO: 236],< 10000 nM,–,–,–,–
RSCYYKRPRLWCSE (Used as synthetic peptide and as phage clone; also called family 4) [IL-2Rβ ligand SEQ ID NO: 1044],–,< 10000 nM,–,–,–
DLSDLSTFWLSQ (Used as synthetic peptide and as phage clone; also called family 3) [IL-2Rγc ligand SEQ ID NO: 248],< 10000 nM,–,–,–,–
SLLKCYNASTCASVF (Used as synthetic peptide and as phage clone; also called family 5) [IL-2Rγc ligand SEQ ID NO: 1032],< 10000 nM,–,–,–,–
